We go through 68 sequences from the domain aggregation screens of Martell et al. (2025).

A short description of this data set: soluble fraction after stress (log2 fold change); higher = more stays soluble; pooled small domains, quantitative proteomics. Particulars: stress: 50 degC. In short, it runs like this:
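The stress applied to every library was 50°C. These custom libraries of small protein domains were pooled and measured at high throughput with quantitative proteomics as the read-out. Aggregation propensity is expressed as the base-two logarithm of the fold change in how much of each protein remains soluble. The higher the value, the more of that protein stays in solution.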
Turning to “HMRRSLIGPTVRERRRALGITQSRLAAEVGISASYLNLIEGDKRNIGGALLQRIAGALGLALD”, the “soluble fraction (log2)” value was -2.74.
As to “HMRRTVIVTAAHAEIRERPDANAPLVFSAEQKVSLDYQETAPGGWVKVRHRDGQSGYVRTNQI”, the “soluble fraction (log2)” value was -0.688.
Consider “HMRRVGTALNRSHKVSYGESIQSIAARYNVNPTMLREYNRLKPEATITPGQILRIPPATIAS”, for which the “soluble fraction (log2)” value is 0.00426.
Take “HMRRVRRTRRLLQDGLLGLMQHKAVADISVKELAEAADVARATVYVHFKDPADVLHQLEQGLY”: the “soluble fraction (log2)” value was -0.0324.
Next, “HMRSDHVFTSHLARRDKYISELESLSDSARDDHIQTIKEEDEYLLKYRRTRNLFGIPLNDEMKQFEPFNY”: -0.131; “HMRSEILNLLREKSPQPVSGQDLANHFGITRTAVWKHIQSLKKMGYGIEAYTKKGYVLVSVPN”: -0.0638.
As for “HMRSGEDESFSAGLLEYPHYTRPAEFEGHRIPDILTSGDHAKVDAWRQEMSEHITRERRPDLWEMYKKK”, the “soluble fraction (log2)” value worked out at 0.0901.
Regarding “HMRSHLSANLQRLRHIAGLTQKDLALAANLPRATLASLEQGEANPRLDTLLAVASALQVGLDELIAAP”, the “soluble fraction (log2)” value was -0.866.
On to “HMRSIMAVSNYRHKKILEMVYQRKSVSADELAAEFGVSKITIRRDLDTLAMDKLLERTRGGAISISD”, for which the “soluble fraction (log2)” value was -2.67.
As for “HMRSRHYRFSTPFLDRLIAEIDWNSDNALSIFNQKLVHFDFLKYFSAIQPGSIVEIENLNFIWTGKRLEAH”, the “soluble fraction (log2)” value was -2.55.
For “HMRSVLSDEIYLLIRKMIFNYEILPGAKVNIDALAKKLDVSQTPVREALSRLESDGLIVKEPLKGFRATD”, the “soluble fraction (log2)” value is -0.875.
Consider “HMRSVPNVAGLGMDGAAFQLGKAGFAIGTITPADDPKAVVGSIQRTEPAAGTVADRDTVVNLFQV”, for which the “soluble fraction (log2)” value is 0.0939.
On to “HMRSVTLQTDREGDILYVDGKQIGVSPQRLELSYGVHTIRAERGEQHTEKELEVTETGGETVVTLGFG”, for which the “soluble fraction (log2)” value stood at 0.129.
Next, “HMRSYTPGSAFRLSSVPVYNAETGPSIGVRSGTYYIHSLPVSNGRIRMTNLISRVGKPGQVSFWVEISR”: -2.45; “HMRTAELEVWDDDELNDVVKLIQNNHNINTLKLRFQENVSFSGLSLIAAVLTKQSIILEIEY”: 0.0488.
Take “HMRTDQYHYLAWKQVADELGIPFDEQVNERLRGVSRMASFDIILERYDGTMSDEEKIHWTDKKNEIYKSM”: the “soluble fraction (log2)” value is -0.948.
The figure for “HMRTGLSGMIGEIGIVKQAIDPEGKVAVHGELWKARADVALAAGQTVRVVAVDGLTMTVEATDSK” is -0.0264.
Next, “HMRTIPDALIGRPYESVETAIVLEGLQAKRTEVFHPTIRPGTVIRLEPTSGSELLRDGVVEIFVSQGPETT”: -0.159; “HMRTITIDDSIAGKRLDEALTLLGAESSRTKVKLLFSSPNGVLVNGEKEKPHYRVEAGDVIQFGELPKK”: 0.271.
Next, “HMRTKEGLASQLEKIPGIGPVKRKALLKKFGSIDAIAAASKEELMLTDGITSSLADAIRDYF”: 0.00122; “HMRTLKDSTEYLIRSMLLRGEMKVGEIYSANALAKELNISNSPVREAMMSLVDRGLLENVRNRGFRVV”: -1.44.
With “HMRTLRENIMDYFKQQTIIQKSSVILLPMSKRQLADYFGVQRPSLFRELKKLKEEGIIEINNRTITIK”, the “soluble fraction (log2)” value was -1.27.
Take “HMRTSIWTAIAHSLRSDIGSGVYGPDDKLPTESALAARFGVNRHTVRHAIKALTDEGLVLPRRGAGVFVTS”: the “soluble fraction (log2)” value was -0.21.
As to “HMRTSPGADYEKTYYTIQSGDNLGAIAEKMGVSVADLKDWNDISGTKIYAGKKLVIYVKKGST”, the “soluble fraction (log2)” value is 0.183.
“HMRTTTGSEGMIGSIGKAKTDLAPDGKIFIHGELWDATSSSPVSAGQKIEVTQIEGLKLHVKPVL”: the “soluble fraction (log2)” value was 0.268.
For the sequence “HMRTVLSDETYLRIREMLLTHDIAPGERINIDALARELDVSQTPVREALARLESEDLVTKEPLRGYTATK”, the “soluble fraction (log2)” value is -0.017.
Next, “HMRTYEHALTEEEKELILIVSNLSEYKSLPPSQIVPKLADLGIYIASESSFYRVLRAHNQLHHRGR”: -2.56; “HMRTYYEILGVSKNASLHEIQKAYRELALKYHPKNNSDPTAEEKFTQINEAYTHLSDAARRRSYDDL”: 0.222.
As for “HMRVGADLTQRERELLALMAQGMSNQEIAKRLEIAVPTVKFHITNILDKLQVGNRTEAVIAALEHKLVP”, the “soluble fraction (log2)” value is -0.58.
Turning to “HMRVKLVKKSILASGGENIRVDKFLSNHILTMTRTQIKKLFLDGLVQVNKSFVKPGSILKGNEIITFSIPE”, the “soluble fraction (log2)” value was -1.8.
In the case of “HMRVNINVSENILDWVMKRVNPSVLSSKQGELLYAWKEGRKVPTYNQIEKMSKVTGIPLGYFFLEKPPVE”, the “soluble fraction (log2)” value is -0.569.
Regarding “HMRVPQWLVDKIAAAGIDTHRSGPALKALAAKAGTPEQLDQAIARAKALRRRTGSTQSLNVGLLGSILEGT”, the “soluble fraction (log2)” value was -0.106.
Regarding “HMRVQELARDLGVEADTLIALLRQMGIPVTGARSAINDAQQAKVLAKIERERRAGHSDPAKAIQAVLEEAS”, the “soluble fraction (log2)” value amounted to 0.121.
Take “HMRVSNADALIGRRGKANSDIRRGDYGWVAIDGDVWKSKLADDITEDIPMGAIVEVLSRDSIILTVKP”: the “soluble fraction (log2)” value was -0.324.
The figure for “HMRWAAIMGREVAAHSTPESLVEGKLHIRTDTTAWATQLRLMSADIVRRLNEVLGEGTVLEVDVRG” is -1.96; for “HMRWSDQKEIVTLSLDHVLVEKGRKTKEYSWREFRTFTAFEIKKSSKDQINLGFKSKGNTVIIGNF” it is -0.919; for “HMSAAELFEERQRQYLRGRKSTKNIADNHGTIILRAGETITDQAIDKAKVAGKLVELVMNNE” it is 0.142.
Regarding “HMSADDSDDRKGIDAWLTQLLANGSVKATEVYSAADAAGYSKDQAKRAKRRLAIEAVREAMDGPWFWRLD”, the “soluble fraction (log2)” value is -0.616.
With “HMSAEDQRRASQEAAYRFMQVMAGNEAGFEDAARALFAGDNHRFEVLIQSWPDDVRDHVSLLSVDAFA”, the “soluble fraction (log2)” value was -0.615.
In the case of “HMSAEVMLRRLIDENDPSSENARYILAVMLERKKILAPVDVKNEKKSKMLFYEHQKTGEAFIVRDP”, the “soluble fraction (log2)” value was -0.267.
Regarding “HMSAEVSEIEIQRIISYYRNQNGVPDKYNEIFDRIAAQYTDEQLKVISNFLPSDVKQYLSFNNEKYKSLG”, the “soluble fraction (log2)” value was -0.295.
On to “HMSAGKKSFTNSEFRRFLDALGEGLIVKHKKLGEGVVVEIRGDKAVIQFGDEQRLYELKTLYEYDLLR”, for which the “soluble fraction (log2)” value is -0.12.
Next, “HMSALAQDGDLVQLQGAGYKSHILRLKAGEVLQTHRGVIQHDAVIGQPWGARLQSHTGSPFYLFQPGLADL”: -0.522; “HMSALTELPVKTVNGKKYHYYVVKQHETVYALSKRFGITPEQLIKYNPSAEDGLQIDQELLFPATEI”: 0.161.
As for “HMSANVSMEEALRRTSQAHSLAGKWMRRVLQMAQGRDLIEQMQREAQEAHLPELIGMSVQLEFIRRG”, the “soluble fraction (log2)” value is -0.11.
Take “HMSAPEGWMNRGDLRDNFRIQYPVTDRIIASYRESHPEWFGTYLSKTSKSLEYFHPDLVAKVREAAN”: the “soluble fraction (log2)” value was -0.101.
For the sequence “HMSAPQKWDGSLQDFIRFKQEAKTLMDNIPNKRLALNAILETISDGKMRKRLAKYDGPESALKSLELEFGN”, the “soluble fraction (log2)” value is -0.0592.
Consider “HMSAQDLIVRRDSARIEARVTEISPTEIRYKRASNPDGPTYVLPLGDVRSIRYANGEEEVFAPA”, for which the “soluble fraction (log2)” value was -0.138.
For “HMSAQQTFLRDAMRRLNMTRDSFAERIGVRRRALDTWLLPEDSSEYRTMPSIVEKFVGEILGREA”, the “soluble fraction (log2)” value is -0.453.
“HMSARKVTVALHTRDHADRLRRLLKHEGVSADLVAARLSHKLTDHPIEVRVNEDDIPAVLRIIENIEIF”: the “soluble fraction (log2)” value was -1.31.
As to “HMSASLPAAVEDPDLPYRVGAKLRHARWGEGLLVGIQREGSDVIATVHFASVGRKRLSLQYAHLEE”, the “soluble fraction (log2)” value is -0.41.
As to “HMSATIMVLRASEDIPVGTEIKDNHLTTVEVGSYGLPEGAINDKDTVLGKVAQTNIIKGDYFFPQKLGG”, the “soluble fraction (log2)” value came to 0.152.
For “HMSDAQIKASINDLWFKYNLETFAKLNLNVNQGRVLVTGIVQNPEHRLEAIRLVWTVDGVQQVINEIQVAE”, the “soluble fraction (log2)” value is -0.795.
As to “HMSDDIPVHYRLDVNDAARALKLLTDNGFSAETAESGLNVYMTRLQSAEAARLLVENNIAVYGLTAV”, the “soluble fraction (log2)” value worked out at 0.0267.
On to “HMSDDLIILGYSMLNNALKAFHIDPDSIKKKHWDKLAQDYHLKNKNQILTDIALGKRVNIMVAHQLTTIMD”, for which the “soluble fraction (log2)” value is -0.633.
In the case of “HMSDDSYLVALAEAYKNATSWDIRRQVLSIMTGVSSYKEISRYIPGLTQYRLSISNLHRLQYGRAAPVP”, the “soluble fraction (log2)” value was 0.0583.
Consider “HMSDEAGKVLQLLRENGGYLPYNDRSDPEDIYAFFSMSKKTFKMTAGNLYKQKKIIFTNTGIKLTE”, for which the “soluble fraction (log2)” value was -0.856.
With “HMSDEVNTDKAFRAIDSTLNRNVKGIAPRDHTLLRNTMITYFKSNDYIDYDTMIQSTLENYKPTELEQDKM”, the “soluble fraction (log2)” value worked out at 0.165.
As for “HMSDGHLIKVLEVLDGGEAFLGRTANGGTARFSLGQLADIRRGSVVFVSEDRWEVVPDSAWPEI”, the “soluble fraction (log2)” value is -0.528.
On to “HMSDGIPDLRNLNFLSPQEGDYLNESDRVFGVTINGDGQAYPLRIVNAHEMVNDTLGGEPISLM”, for which the “soluble fraction (log2)” value is 0.16.
The figure for “HMSDHKNANFTKVVKVAQELLQDEDDKAGITPTLIEEKISAVLAMNRRWAEGLDRAAVADELIRRFSIW” is -0.42; for “HMSDIATLVPGPTDAELAASALRGLDAALDADTPVRLSLGEPGGEVEVPRSVLAALARVLDSFAHGEGVTL” it is -0.136; for “HMSDIISEIESQVMFKLATYEITNATEKMIEALINSEINDRRTLGFPIPNEQGRIFLVRSIQNKLAV” it is -1.05.
The figure for “HMSDIIVQGNRRLDTDLIITDSQIREIGTDEKSLSLAVKNLYKTGYFENVQIFKDNSVVFINVKENQ” is -0.103; for “HMSDIQKGTQINLVNEPLYVSSKTSIVSTYKTGTYYTWGFEANNRIAITNKLENIGVKGQVTGWINKP” it is -1.1.
Next, “HMSDKFNALWIILNKLDKKEKVTARSLMEDLEVSERSVYRYITTLQVAGFPVDYDRAVNSYVFSDGYTLK”: -4.08; “HMSDKLTLPVQINGVFRYTIEINPSMQKDEIIDLVKNEERTAKYKQDKEIKNVIVVPGKIVNIII”: 0.0263; “HMSDLPLLEHARQNLSDDEFRILELTTIYGYRRVEVAKMLGEPISTINWKYNKLIKKVKTFYGEVYN”: -1.02.
